From the RNAGym collection of RNA variant scans (doi:10.1073/pnas.2313332121)
This sample holds only a part of the variants without activity.

B1: TPR 5TU (parent)
chain: GGAUCUUCUCGAUCUAACAAAAAAGACAAAUCUGCCACAAAGCUUGAGAGCAUCUUCGGAUGCAGAGGCGGCAGCCUUCGGUGGCGCGAUAGCGCCAACGUUCUCAACUAUGACACGCAAAACGCGUGCUCCGUUGAAUGGAGUUUAUCAUG

Variants of: B1
Assay: polymerase ribozyme fitness, log enrichment relative to wild type (log ratio); higher = more active; in vitro selection for triplet polymerase activity
Method in brief: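 Mutant libraries for each subunit of a heterodimeric triplet polymerase ribozyme were made by PCR and then transcribed. Each library underwent one round of in vitro selection in triplicate: annealing with a biotinylated primer, the partner subunit and triplets, frozen incubation at −7 °C, gel excision of extended constructs, streptavidin-bead capture and RT-PCR. Input and output libraries were Illumina-sequenced, and only genotypes with ≥10 input reads and ≥1 read per output were kept. Fitness is the logarithm, base 2, of genotype enrichment over wild-type enrichment, computed from inverse-variance-weighted replicate averages.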

Row | Variant | polymerase ribozyme fitness (log ratio)
1 | GGAUCUUCUCGAUCUAACUAAAAAGACAAAUCUGCCACAAAGCUUGAGUGCAUCUUCGGAUGCAGAGGCGACAGCCUUCGGUGGCGCGAUAGUGCCAACGUGGUCAACUAUGACACGCAAAACGCGUGCUCCGUUGAAUGGAGUUUAUCAUG [A19U A49U G71A C93U U102G C103G] | ≤ -4.2
2 | GGAUCUUCUCGAUCUAACUAAAAAGACAAAUCUGCCACAAAGCUUGAGAGCAUCUUCGGAUGCAGAGGCGGCGGCCUUCGGUGGCGCGAUAGCGCCAACGUUCUCAACUAUGACACGCAAAACGCGUGCUCCGUUGAAUGGAGUUUAUCAUG [A19U A73G] | 0.504
3 | GGAUCUUCUCGAUCUAACUAAAAAGACAAAUCUGCCACAAAGCUUGAGAGCAUCUUCGGAUGCAGAGGCGGCAGCCUUCGGUGGCGCGAUAUCGCCAACGUACUCAACUAUGACACGCAAAACGCGUGCUCCGUUGAAUGGAGUUCAUCAUG [A19U G92U U102A U146C] | -2.35
4 | GGAUCUUCUCGAUCUAACUAAAAAGACAAAUCUGCCACAAAGCUUGAGAGCAUCUUCGGAUGCAGAGGCGGCAGCCUUCGGUGGCGCGAUAGCGCUAACGUUCUCAACUAUGACACGCAGCACGCGUGCUCCGUUGAAUGGAGUUUAUCAUG [A19U C96U A120G A121C] | -0.837
5 | GGAUCUUCUCGAUCUAACUAAAAAGACAAAUCUGCCACAAAGCUUGAGAGCAUCUUCGGAUGCAGAGGCGGCAGCCUUCGGUGGCGCGAUAGCGCCAACGUUCUCAACUAUGACACGCAAAACGCGUGCUCCGUUGAAUGGCGUUUAUCAUG [A19U A142C] | -1.11
6 | GGAUCUUCUCGAUCUAACUAAAAAGACAAAUCUGCCACAAAGCUUGAGAGCAUCUUCGGAUGCAGAGGAGGCAGCCUUCGGUGGCGCGAUAGCGCCAUCGUUCUCAACUAUGACACGCAAAACGCGUGCUCCGUUGAAUCGAGUUUAUCAUG [A19U C69A A98U G140C] | ≤ -4.2
7 | GGAUCUUCUCGAUCUAACUAAAAAGACAAAUCUGCCACAAAGCUUGAGAGCAUCUUGGGAUGCAGAGGCGGCAGCCUUCGGUGGCGCGAUAGCGCCAACGUUCUCAACUAUGACACGCAAGACGCGUGCUCCGUUGAAUGGAGUUUAUCGUG [A19U C57G A121G A150G] | -1.93
8 | GGAUCUUCUCGAUCUAACUAAAAAGACAAAUCUGCCACAAAGCUUGAGAGCAUCUUCGGAUACAGAGGCGGCUGCCUUCGGUGGCGCGAUAGCGCCAACGUUCUCAACUGUGACACGCAAUACGCGUGCUCCGUUGAAUGGAGUUUAUCAUG [A19U G62A A73U A110G A121U] | ≤ -4.2
9 | GGAUCUUCUCGAUCUAACUAAAAAGACAAAUCUGCCACAAAGCUUGAGAGCAUCUUCGGAUGCAGAGGCGGCAGCCUUCGGUGGCGCGAUGGCGCCAACGUUCUCAACUAUGACACGCAAAACGCGUGCUCCGUUGAAUGGAGUUUAUCAUG [A19U A91G] | -2.85
10 | GGAUCUUCUCGAUCUAACUAAAAAGACAAAUCUGCCACAAAGCUUGAGAGCAUCUUCGGAUGCAGAGGCGGCAGCCUUCGGUGGCGCGAUUGCGCCAACGUUCUCAACUAUGACACGCAAAACGCGUGCUCCGUUGAAUGGAGUUUAUCAUG [A19U A91U] | ≤ -4.2
11 | GGAUCUUCUCGAUCUAACUAAAAAGACAAAACUGCCACAAGGCUUGAGAGCAUCUUCGGAUGCAGAGGCGGCAGCCUUCGGUGGCGGGAUAGCGCCAACGUUCUCAACUAUGACACGCAAAACUCGUGCUCCGUUGAAUGGAGUUUAUCAUG [A19U U31A A41G C87G G124U] | -4.17
12 | GGAUCUUCUCGAUCUAACUAAAAAGACAAAUCUGCCACAAAGCUUGAGAGCAUCUUCGGAUGCAGAGGCGGCAGCCUUCGGUGGCGCGAUAUCGCCAACGUUCUCAACUAUGACACGCAAAACGCGUGCUCCGUUGAAUGGAGUUUAUCCUG [A19U G92U A150C] | -2.67
13 | GGAUCUUCUCGAUCUAACUAAAAAGACAAAUCUGCCACAAAGCUUGAGAGCCUCAUCGGCUGCAGAGGCGGCAGCUUUCGGUAGUGCGAUAGCGCCAACGUUCUCAACUAUGACACGCAAAACGCGUGGUCCGUUGAAUGGAGUUUAUCGUG [A19U A52C U55A A60C C76U G83A C85U C129G A150G] | ≤ -4.2
14 | GGAUCUUCUCGAUCUAACUAAAAAGACAAAUCUGCCACAAAGCUUGAGAGCAUCUUCAGAUACAGAAGCGGCAGCCUUCGGUGGCGCGGUAGCGCCAACGUUCUCAAAUAUGACAAGCAAAACGCGUGCUCCGUUGAAUGGAGUUUAUCAUU [A19U G58A G62A G67A A89G C108A C116A G152U] | ≤ -4.2
15 | GGAUCUUCUCGAUCUAACUAAAAAGACAAAUCUGCCACAAAGCUUGAGAGCAUCUUCGGAUGCAGAGGCGGCAGCCUUCGGUGGCGCGAUAGAGCCAACGUUCUCAACUAUGACACGCAAAACGCGUGCUCCGUUGAAUGGAGUUUAUCAUG [A19U C93A] | -2.7
16 | GGAUCUUCUCGAUCUAACUAAAAAGACAAAUCUGCCACAAAGCUUGAGAGCAUCUUCGGAUGCAGAGGCGGCAGCCUUCGGUGGCGCGAUAGUGCCAACGUUCUCAACUAUGACACGCAAAACGCGUGCUCCGUUGAAUGGAGUUUAUCAUG [A19U C93U] | -0.795
17 | GGAUCUUCUCGAUCUAACUAAAAAGACAAAUCUGUCACAAAGCUUGAGAGCAUCUUCGGAUGCAGAGGCGGCAGCCUUCGGUGGCACGAUAGCGCCAACGUUCUCAACUAUGACACGCGAAACGCGUGCUCCGUUGAAUGAAGUUUAUCAUG [A19U C35U G86A A119G G141A] | -3.69
18 | GGAUCUUCUCGAUCUAACUAAAAAGACAAAUCUGCCACAAAGCUUGAGAGCAUCUUCGGAUGCAGAGGCGGCAGCCUUCGGUGGCGCGAUAGCGCUAACGUUCUCAACUAUGACACGCAAAACGGGUGCUCCGUUGAAUGGAGUUUAUCAUG [A19U C96U C125G] | -0.589
19 | GGAUCUUCUCGAUCUAACUAAAAAGACAAAUCUGCCACAAAGCUUGAGAGCGUCUGCGGAUGCAGAGGCGGCAGCCUUCCGUGUCGCGAUAGCGCCACCGUUCUCAACUUUGACACGCAAAACGCGUGCUCCGUUGAAUGGAGUUUAUCAUG [A19U A52G U56G G80C G84U A98C A110U] | ≤ -4.2
